Experimental data as given in the supplement of paper PMC9170038.

The sequences below were run on K4 kissing-loop RNA reporter (assay: apparent KD of K4 kissing-loop reporter; higher = weaker reporter binding). Details: Eterna round: R107; input ligand: arginine 13.2 mM.
Description: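 RNA-MaP round R107: designed RNA switches with theophylline, tryptophan, arginine or FMN aptamers are transcribed on-chip within common flanks. They are titrated with a labelled K4 kissing-loop RNA reporter in RNA-MaP buffer (100 mM Tris pH 7.5, 80 mM KCl, 4 mM MgCl2), without ligand or with the indicated ligand. Median apparent KD per design.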
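Further: bound reporter read as fluorescence of individual clusters on recovered sequencing chips by microscopy, with normalized cluster intensities fitted with a binding model.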

| Sequence | apparent KD of K4 kissing-loop reporter |
| --- | --- |
| UACAGGGAUAGUGAUGUUAUCCCAUGUGAUACCAGUGCCAUCCAACACCCUUGGCAGCAUACGGGCAGUGAUGUUGUUCUUGGUA [#16 K4 Theophylline A Exclusion] | 79.8 nM |
| GCGCGUCAUGUCAGCGGUGACUACGUCGAUACCAGCAGGGAAACCUGCCCUUGGCAGCGACGCGCUGGAGUGAUGUUCCGACAGA [#2 Exclusion - Theophylline A Attempt #5 (HarryS)] | 247 nM |
| GUGCGGCUAGUGAUGUUGGUUGCGUGGGAAGGAGCGCAGAAACAUGCAGGUAGGUCGCCCACACCUCUGAAAGGAGGCUAAUUCA [Bisobi] | 128 nM |
| GUGGCACGAAAGUGCCACGCAUCCUCUGGCUAGGAUAUCUGGAAACAGAGAAGGAGCUCAUGAGUGAUGUUCAUCUAGAGGAUGC | 537 nM |
| AGUACAAUUGCGGCCGCCACUCAACGCAGAUCAAAGAUCUGCAUUCACUCAGUGAUGUUGAGUGAGAGGACCGGGCAUUUGUACA [Omei KL Tryp B SS B v2] | 481 nM |
| AGAAACUUGUAUACAGGGCAUGCCAGAGAUACCAGUCAAAUGGAAGGCCCUUGGCAGCUCAGGCGAGUGAUGUUCGCAGGCUGAC [Exclusion Theophylline A GF 20] | 113 nM |
| GCAUCCUAUGCAGGAUAUUAGCAUUUGAGUGAUGUUCAGACUAGCGAAAGCUAGUCAAUUGCUGGUUAAGAAGGGCAUAGGAUGC | 750 nM |
| UUCGGCCUGACGGCCGCCACUUUGGGUAGUGAUGUUACCAACAUUCACCAGAUACAGGUUACUUCAAGGACCGGGUCAGACGGUG [theeternabot_exclusion_KL_Trp_B_45] | 100 nM |
| AGACUACCACACUGUCAAUAGACAGUGAACUAGGAUAUGCUGAUAAGCAGAAGGAGUGAUGUUCCUUGGUAGUCAAUAAAAUAAU [FmnAX 13 U67] | 270 nM |
| GUCCACACUGCAGGAUAUGGAGAAAUAGCGAGGGAGCUUGGAAGCACGCCUCUGGCAGUGAUGUUGCCAGAAGGGCGGUGCGGCG [Dilazasole] | 76.9 nM |
| GGCCGCAAGGCGAGCGCUCCCACUCCGGAAGGAGCGCCCGUAAGGGCAGGUAGGUCGCCGGAGUGAUGUUCCGGUGGAGGGCUCG [#2 Exclusion - Arginine A Attempt #17 (Inspired by Omei)] | 239 nM |
| AGAGUCAGACAAAAGUCUGGCUCAGCCGAAGGAGCGUCCGAAAGGACAGGUAGGUCGCGGUUGCAUGAGUGAUGUUGAUGUUUUU [KL-SSArg-A23] | 372 nM |
| UGCUUUAGAAUACAAGGUAUUUACACUGAUACCAGUCAGUUAAAUGACCCUUGGCAGCAGUGUCAGUGAUGUUGACACAACACAU [Theo A Ex t4] | 173 nM |
| GUAUAUCGAACUGAUACCAGAGAAUAAAGCAGUGAUGUUGCAUAUAUAAAUAAGACUCGACUCCCUUGGCAGCGGGAAGAUAUAC [On purpose 1] | 231 nM |
| UAUUAAUUGUCAGGAUAUCGUAAUCGAGUGAUGUUCGAAUAUCGACGAUAGUCGAUAUUAUUUAUACGAGAAGGGACAUUAUUUA [JR_SSFMNB_Sub004] | 298 nM |
| AGUUCUUGCCGAAGGAGCGAGGCAGAGUGAUGUUCUGCAAAGAGGUCGAAAGACCUCCUGCCUCAGGUAGGUCGCGGCAUGAACA [Omei KL Arginine B Exc A v5] | 942 nM |
| AUGCGCGCGGCGGCCGCCACUCGCAUGAGAGUGAUGUUCUCGCCGUGCCCGCAAGGGUGCGGUGUGAGGACCGGGCCGGGCUGCG [#2 Same State - Tryptophan B Attempt #19 (HarryS)] | 143 nM |
| GCUGCCAUGGCAGGAUAUAUAAAUGCUGAGUGAUGUUCUGCAUCAUAUGUCCCUGACCGCGGCGGUGUAGAAGGGCCAUGGCAGC | 93 nM |
| UCCUGCAAUCAACCACGAAAGUGGUUCGAUACCAGAGUCGAAAGACUCCCUUGGCAGCGAGUGAUGUUCGAGCAGGUAAAAUAAA | 642 nM |
| GACAAUUCCGCUUCCGAGCAUACUUGACUGAAGGAUAUCAUCGUGUUGAGAAGGUCAGUAACAGAGAGUGAUGUUCUUUGAGGUC [theeternabot_sameState_KL_FMN_A_19] | 168 nM |
| AAGUAGCUCUCGGCCGCCACUCCUCAGUGAUGUUGAGAUUUUUUCUGCCAAUUGGCGUUUUUUUAGAGGACCGGGAGAGCUACAA [AK1 SS Tryptophan B] | 365 nM |
| UGGAGUUGACGAAAAGUCAACUCCUGAGAAGGAGCGGACGAAAGUCCAGGUAGGUCGCUCACUACCAGUGAUGUUGGUACUUAAA [#OpenEnded 4] | 235 nM |
| GGGCAUGAUACGAUAAAAUAGUGGAGAGAUACCAGCGUUUUAGAUCGCCCUUGGCAGCUCUCGAGUGAUGUUCGGGUAGCUCUGA [Onedra] | 98.5 nM |
| ACAAAAGUGAUGUUUUUGAACGUGCGCGAUACCAGAAAUGUCUUCUUCCCUUGGCAGCGCUAUUACUUGUAAGAAAGUACGUUUC [theeternabot_sameState_KL_Theo_A_17] | 528 nM |

Same assay, conditions: Eterna round: R107; input ligand: none

| Sequence | apparent KD of K4 kissing-loop reporter |
| --- | --- |
| GUCUUACUAUAGGAUACCAGCAUGCAAGGAGUGAUGUUCCCGUCAUAUGAGGAGUACCGCUGCCCUUGGCAGCCUCUUGUAAGUU [theeternabot_sameState_KL_Theo_B_1] | 353 nM |
| GGAAUGCUGUAAGGAUAUCUCGGACGGUUACUCCGUUUCUCGCGUGUAAGAAUCUGAGUGAUGUUUAGAGAAGGUACGCUGGUUA [theeternabot_exclusion_KL_FMN_B_21] | 240 nM |
| CGGAUCGCAUCAGGAUAUCUCUCAUCAGUGAUGUUGGUGAAGCGUACGCGAAAGCGUACGCAGAUGAGAGAAGGGAUGCGAUCCG | 1670 nM |
| CAAAUAAAUAUAAUUGAUAAGUGAUGUUGGCGAGGACCGGUACGGCCGCCACUCGAUAUCGGUCCAUUAACCGAGUGAUGUUUGG [Default title] | 81.1 nM |
| GCAACAUUGGGAGGAUAUCAUUCUGAGUGAUGUUCAGGGUUCAGCUAACGAAAGUUAGUUGUACCAUGAGAAGGUCUAAUGUUGC [Omei KL FMN B SS A v6] | 1180 nM |
| GAGAAUCUAAUUGAUACCAGAGUAAGAACCAGUGAUGUUGGAAGAUUCCCUAAUAAAUAACUCCCUUGGCAGCGGAAGAGAAUAG [Totally accidental 2] | 176 nM |
| GGAUCCACCAGUGAUGUUGGAGAAAACUCUAAGGAUAUGACGAAAGUCAGAAGGUGGUAGACUGGACAAAGUCCGGUAGGAUCCA [FmnA10 U30+A78] | 617 nM |
| UGUGAUGUGUAGUGUUAUGUUUUGAGGGAUACCAGAGUGUUUUUAUUCCCUUGGCAGCUUGAGUGAUGUUUGAUGUUGUUGUUGU [knnumullin] | 232 nM |
| UACAGGGAUAGUGAUGUUAUCCCAUGUGAUACCAGUGCCAUCCAACACCCUUGGCAGCAUACGGGCAGUGAUGUUGUUCUUGGUA [#16 K4 Theophylline A Exclusion] | 86 nM |
| GCGCGUCAUGUCAGCGGUGACUACGUCGAUACCAGCAGGGAAACCUGCCCUUGGCAGCGACGCGCUGGAGUGAUGUUCCGACAGA [#2 Exclusion - Theophylline A Attempt #5 (HarryS)] | 192 nM |
| GUGCGGCUAGUGAUGUUGGUUGCGUGGGAAGGAGCGCAGAAACAUGCAGGUAGGUCGCCCACACCUCUGAAAGGAGGCUAAUUCA [Bisobi] | 163 nM |
| GUGGCACGAAAGUGCCACGCAUCCUCUGGCUAGGAUAUCUGGAAACAGAGAAGGAGCUCAUGAGUGAUGUUCAUCUAGAGGAUGC | 1010 nM |
| AGUACAAUUGCGGCCGCCACUCAACGCAGAUCAAAGAUCUGCAUUCACUCAGUGAUGUUGAGUGAGAGGACCGGGCAUUUGUACA [Omei KL Tryp B SS B v2] | 548 nM |
| AGAAACUUGUAUACAGGGCAUGCCAGAGAUACCAGUCAAAUGGAAGGCCCUUGGCAGCUCAGGCGAGUGAUGUUCGCAGGCUGAC [Exclusion Theophylline A GF 20] | 142 nM |
| GCAUCCUAUGCAGGAUAUUAGCAUUUGAGUGAUGUUCAGACUAGCGAAAGCUAGUCAAUUGCUGGUUAAGAAGGGCAUAGGAUGC | 971 nM |
| UUCGGCCUGACGGCCGCCACUUUGGGUAGUGAUGUUACCAACAUUCACCAGAUACAGGUUACUUCAAGGACCGGGUCAGACGGUG [theeternabot_exclusion_KL_Trp_B_45] | 121 nM |
